Measured values taken from a protein production outcome set (Wang et al. 2014).

Experiment: label from the status in PepcDB records

| Sequence | protein production |
| --- | --- |
| MLDCIVVGAGPAGGSAAYHLARRDRQVLLLEQAQLPRQKACAGGVSPQVARWFDCDLRSVVDHGVDRLRFTWKLGDPVEAELPSEEPFWMVRRDRFDHFLVEQAANLGARIEDGAAVTAVSAEGDGWLVTVGDRAYRSRTLIAADGARGPLAQWLGFPSQKRRYAQACELDVPLPARPDSTAHFEFGLVRNGYIWVFPKSDGYSIGIGTFRGNDATDFRGLLETYLAGFGVSADLDRIVPHPLCVWDGSQPLHRGSALLVGEAASLTDPFTAEGIRPALLSGMRAAEAIDRAIAGDRNALAGYSRTIQQEWGDSMAWAKRISSVFYRVPNLGYQIGIKRPTAPQRMAQILVGELDYSDIATRVIRRLTTGFLPGMR | failed |
| MLDHFGSDPVFSPEQVLENRGRVAIFIDGSNLFYAALQLGIEIDYSKLLYRLTGGSRLLRSFFYTGVDRANEKQQGFLLWMRRNGYRVIAKDLVQLPDGSKKANLDVEIAVDMMALVGSYDTAVLVSGDGDLAYAVDAVSYRGARVEVVSLRSMTSDSLINVADRYIDLEQIQTDIQKLHRGQFSEPRLMEDRGGGTIELPSHE | failed |
| MLDLFGYKRRKTSVAQIGDTPLGGDFPIRIQSMANVSTMDTQASVDQAARIIDAGADYVRFTAQGVREAVNLQHIHAGLCRLGYHIPLVADIHFSPKAAEEALLHVEKVRINPGNFVEMKSGGNLTEEEAFDLGHKAVRERFGSFVEDAKRLGRAIRIGVNHGSLSERMLTRYGDTAEGMVQSCMEYLDVCHEHEFDDVVISMKASNTLVMTAAVRLLVERMDAADMHYPLHIGVTEAGDGEDGRIKSAVGIGSLLADGIGDTIRVSLSEDPEHEIPVARKLLAYIEKRNGHPSVAVPQPDRYDRDKLRRQETYAVGDFIGSKHIPIVISDRRQGDDHFDTELLPDIVLGADGRYYREDMLLENIVFRSIRQDDLTDDCLQTIEAISDTVIILESVGINPVAEWRAMLHRLELAGCRCPVILHRRYDCTDLEDLQLQASADMGAILLEGRGNGLMITADKLPSVAVNHLAFGILQATR | failed |
| MLDNAIPQGFEDAVELRRKNRETVVKYMNTKGQDRLRRHELFVEDGCGGLWTTDTGSPIVIRGKDKLAEHAVWSLKCFPDWEWYNIKVFETDDPNHFWVECDGHGKILFPGYPEGYYENHFLHSFELDDGKIKRNREFMNVFQQLRALSIPVPQIKREGIPT | not failed |
| MLDPARSYDLIGDVHGCALTLEHLLDRLGYHKQAGVWRHPSRMAVFLGDIIDRGPRIRESLHIVHDMVEAGQALCIMGNHEFNALGWSTPAAEGSGKQFVREHTPRHARLIHETLTQFEQHPGDWHDFLQWFYELPLFVDAGRFRVVHACWDAGLIAPLRQQYPNGCIDREFLQSAAVPDSFACTAFDRLLRGTDMRLPHGLTMTSGDGLTRAFFRTKFWEDDPQTYGDIVFQPDALPEPVARTPLSPAEKNSLLRYGAEEPMLFVGHYWRSGKPAPIRPNLACLDYSAVLYGKLAAYRLDQETRLDPNKFVWVDVERPEVVRLEHHHHHH | failed |
| MLDPHSRMPLYHQIESHLREVIRSGKWQAGEAIPPERLLIEQYGVSRITIRQALANLVAAGLLYRKHGRGTFVAGAKERPITESLANLTGHLEELQLRGLDPRVRVLALETRPMIAEVAEALQRSPGAEGWYLYRIVTVEQQPLMLSTVWLPCDLGVELNEELLKQHGMALLLTHNGIAPLRGSQRIGAMSAGPEEARLLGVRAGEAVLRVSRVIHGAADRPLVWFRTLYRSDRYEYEVELKRGRPHA | failed |
| MLDRLLGRVHDTKHAAPILRGYLWWGLLLRAVLLLALGTLLVVEGNVLAEWLLTVRPPALPQEDVEELTAVSYTVIVVLLMVGTGARWQLLRRLEAAEAVPESAPSSAEEAPPLGR | failed |
| MLDSFKSALQQFAASIRFKFKSLRSYKYVPQIDSRDCGVAALASIAKYYGSDYSLAHLRELAKTSKEGTTALGIVEAAKKMKFETRAIKADMSLFDVEDIPYPFIVHIVKDGKLQHYYVVYGQEKEKVIIGDPDPTVKIATPVQIAICRRMDRCCYFSGT | failed |
| MLDSHLHPRLKPLLNAVAGALDRPGISPDGLTLVGFAIGVLALPFLALGWYGAALAAILLNRLLDGLDGALARRRGLTDAGGFLDIALDFLFYALVPFGFILADPLNNALAGGWLLFAFIGTGSSFLAFAALAARHQIANPGYAHKSLYYLGGLTEGTETILLFVLGCLFPAHFAWLAWLFGALCWLTTATRICSGYQTLKRVTTTA | failed |
| MLDVAIIGGGPAGLSAGLYATRGGLKNVVMFEKGMPGGQITSSSEIENYPGVAQVMDGISFMAPWSEQCMRFGLKHEMVGVEQILKNSDGSFTIKLEGGKTELAKAVIVCTGSAPKKAGFKGEDEFFGKGVSTCATCDGFFYKNKEVAVLGGGDTALEEALYLANICSKIYLIHRRDEFRAAPSTVEKVKKNEKIELITSASVDEVYGDKMGVAGVKVKLKDGSIRDLNVPGIFTFVGLNVRNEILKQDDSKFLCNMEEGGQVSVDLKMQTSVAGLFAAGDLRKDAPKQVICAAGDGAVAALSAMAYIESLH | not failed |
| MLEAPLLSICIPAYNRPNWLQRGLESIAVGEGSDIEIVITDDSDTDQGQAIASEVLKNWSGSWCYEHHQQPLGMAQNWNRAIQWATGQYVMVLHDDDFFLPQGLGLLVNKLRQLGSSSPVLLFGVRVVDAQERVVKRQGFRQDKLLPPHDALIRLFSDSSFVRFPAMVIRRDLFTEVGYFNPDWREPCDLEMWMRLFARYGVYCCREATVAYRVHGQALTMGSFHGETVNILLRLFGELEKLNILTTRDIEFCKGLFFHQYILAGAWRQLRRRRWREFKQVMGLFDLPELKSLSCPVKWRFLRGLFSLTLEHHHHHH | failed |
| MLEGESAPEPVIEISKLELTDYVKCNLPPEVIKYYESELELLTQEIKSEKKNPAFAYCRRGAIYRKLGKLQSAMNDLQETIFVEPLFLNAYWHRHFIYLFQDKINDALDDLNFITKYNKNHAEAYLSKAEIFREKNDITLAILNYSQAIKCRPKDASLYFKRGEMYEKTNKVLAIDDFSKGLDQAVTHVTESAQIFPPLLGQNDCIYYDPKRSDALWKRGMFYFENENWTGAVYDFTSLLKLEPHNSQARTNRGRAYFKRNLFKQATEDFSAAIHSDPNNWLALYYRACLFRKCSPQRALQDYSVSVSVSVLCSPGFKLFIYKVNGMSEFTTSFHEFVNCDCHVLINDGYDNLNCFLHRGILYTELKFWMLAVCDFETVVTLERIKAIISSRGQYLLMMKSYDLAKLTIFQVAEMNKGVIELSPIQEALIYSFCENHDKAIHVLEGVIANKPDISTYALLAKAQMKAKRIKESVRLFKKALELYTFSDKGPAATSVSADCLYNLGLCYMEEGNFQMNYKLAITDLTTAVGMDKNSYTAFYNRALCYTKIKKHEMALRDYGIVLLLQAGETIALNTLVNRGLIYTELEQYGFALEDFKEASMISETSVKLCQATAMCHHRIKEFQGAVEFFTRAIKINPRYLDAYIGRGNSYMEYEQNKAMIQAQKDFLRALHLDPSNLKARISLGYNLQAQGKFQKAWQHFTIGIEANPKNYLAYEGRAVVCLQMSNYFAAMQDINCAIKINSTAEFLTNRGVIHEFMGQQQNAMADYQAAISLDPNYSLAYFNAGNIYLHHRQFSQATDYFSTALKLNPENECALMNRAVTNSVLKKYEEAEKDFSHAMELCPHWAALYFNRASFYVYLKKYELAEEDLDRALSLKPDDAIMYNLRAQVRGKIGLIEEAMCDYNQALDLEEYSKAM | failed |
| MLEHFRAGWAKVMNPIADALLRAHVTPDVVTWIGTIGAVLMALICFPQGWLWQGPWLVTLFIFSDSLDGNMARKLGRHSQWGSFLDSTLDRFGDAAIFTGVALYFAGPGNSVLWTAMACAALVFGMATSYVRAKAESLALEAKVGIATRADRLLVSLVAIEITGLARVGAFPHWCVVALPIALCYLTLAGAITVVQRMVAVRRACES | failed |
| MLEKELSFADLSISLSELYEAMGYADAVPDEAVEKEVRGVLGRVEAVTSPRFCFFISGGELDESKDSLSVGDTCFSIGKIITRQLRGSESFAFFAATAGTGFERFQHTLQQEGDMVKVYIADAIGSVIAEKTADCMEIALDEYIRDRGWRHTNRFSPGYCGWHVSEQKKLFPLFPSAEPCGIRLTDSGLMLPIKSVSGVIGLGDGVRKLEYTCGLCTYDRCYRRKQRGLEHHHHHH | not failed |
| MLEKLIERVLFATRWLLAPLCIAMSLVLVVLGYVFMKELWHMLSHLNTISETDLVLSALGLVDLLFMAGLVLMVLLASYESFVSKLDKVDASEITWLKHTDFNALKLKVSLSIVAISAIFLLKRYMSLEDVLSSIPKDTPLSHNPIFWQVVIHLVFVCSALLAAVTNNIAFSQNKAH | failed |
| MLEKVFQEITNKRKFFASSSTGEQFENQFRNELKKHFSEINGDLTEELSHIEEKPNKEIKTTFNQLKKQVLEKNHPHTLKNPFSNLTSHFLYQPFGSQNYPDFLVFIFDYVVGIEIKFSKNDKGEKNLQTSRPMWNSNLPKPNAIYVYGVANANITFFKGSDILSYETREVLLKYFDILDKDERSLKNALKDLENPFGFAPYIRKAYEHKRNFLTTTRLKASFRPTTF | failed |
| MLENIRIVLIETSHSGNIGSAARAMKTMGLTQLCLVSPKSVDEQSYALSAGAENIVKNARVVDSFDEAVDDCPLVIGTSARLRHLQNTLIEPRECAEKVVAYKGKIAIVFGRERIGLTNEELLKCHYHLNIPANPDYSSLNLAMAVQLVSYELRMAFLVQNNKKNSLSLIEKNYPTTDQLAYFFDYTERIYQSLGFIQNQGVMRKLKRLYYRAKLEKNELNILNGMLSAVEKRIDLTKEDN | not failed |
| MLEQGLDYVVKLAKSKKQILDANPMQYFIRAALAGIYIGFIIVLCFKLGNFFHIADSPATYLAASMFFGIALVLIIYGGAELFTGNTMYFTVATLRKETTISDTLRNWVACYAGNLAGALFFALLFYATGIFEAIDHGHLMNKVVEGKMNTPTMQLFFKAILCNWLVCLACFLPSQVKGDTAKIMIMMLLVFTFFLSGYEHSIANLSLFALSLVSPHPETISFAGAIHNLIPVTIGNIIGGSVFVGMVYHYLTKKVPDVKQEETELVAAQQEEIIPLQAHMKH | failed |
| MLEQILLGTYTRRASQGIYKIALDTTQGRLTEATLLLEETSPTYLALSQKGELFSVTSVDGEGGTAAYQPEMDHFNLLNKVTEEGAPPCYVAVDENRQLVYAANYHQGIVHVYRILEDGSLEDADKVIHTEPTGPHENQNNAHVHYTDLTPDQRLVVCDLGTDRVYTYNVSLDGKLSEIAQFVTEPGTGPRHLVFHPTKSLAYLFGELDSTVSVLSYDETDGSFTELQKVSTLPADYDAFNGGAAIRISSDGRFLYASNRGHNSIAVYAVSENGEAIERIQLISTEGDIPRDFDLDPSEDFIVVANQDSDNLTLYRRNQETGLLEMIQKDVAVPECVCVLFVLEHHHHHH | not failed |
| MLETDLEARMQILRESGFQESQGDDDTFAQRAEWFYQGRPLLLSLCLDLYNGYVTLLGRSSHQTRLKPTTSLPNQLLQDDDDCISDIDSVSEVSSEVESTLSFQQMKDPTAVSEKVDELVSQLVTASLDKEILKHELLHKDQQFHEASKTIELLKKFVMLLEMEKEVAVEENANLGYKLTSLLEENRELATEALFMKNEAVGLARCVLKMRDDHFHKVCILQNRIYSLQASRNSEPVSDKVSYGCFGLDKHKTKKKKENKTEEKKPGFKWLKKLNTINLFTKCSLNPSAAAPSCCTFDLPY | failed |
| MLEVDVVRISVIVPIYNVKLYIERCVRSLMEQTLENIEFIFVNDCTPDDSMDILHYVLEEYPKRREQIKIIEHETNRGISAVRNTGLKNATGQYIIYCDSDDWVEKNMYEKLLVKALETSADIVGCDFFDDYVAHSTIRKQLFPQQSEKCVKKMLRGELHCGTWNKLVIKSLYERTKIDFPEGINMWEDVSTIIPLCFHATKIDYIPEALYHYIHHNVSSYTYSVTEKSLENLVASIQLLESFFLTNQCFKTFGEDLCFMKLTVKLNLLLGSKGELQKKRNMLYSSANRYIFSYSGMSWYWKIALWVASKKMLFCFNVMSCIERIIKKWKLEHHHHHH | failed |
